Measured values from the nanobody polyreactivity screen of Harvey et al. (2022).

Test: yeast display, Sf9 membrane polyspecificity reagent, FACS + sequencing; frameworks hold sequencing errors
How it was run: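 Genes from sorted yeast were amplified by colony PCR, read by MiSeq 2 × 250 sequencing and filtered on CDR length. These cells carried a synthetic nanobody library in Saccharomyces cerevisiae BJ5465 and were sorted by FACS into low and high (top ~1%) gates on anti-HA and streptavidin fluorescence. Polyreactivity is labelled according to the gate of origin.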

Sequence	polyreactivity (PSR sort gate)
QVQLVESGGGLVQAGGSLRLSCAASGFILPIYAMGWYRQAPGKEREFVAAITWTGGSTYYADSVKGRFTISRDNANNTVYLQMNSLKPEDTAVYYCNAEGRSYYYIIYDFWGQGTQVTVSS	high polyreactivity
QVQLVESGGGLVQAGGSLRLSCAASGFILPNYAMGWYRQAPGKERELVAASTYIGGSTYYADSVKGRFTISRDNAKHTVYLQMNSLKPEDTAVYYCAKYWLGYTKYDYWGQGTQVTVSS	low polyreactivity
QVQLVESGGGLVQAGGSLRLSCAASGFILPNYAMGWYRQATGKERELVDAITYIGGSTYYADSVKGRFTISRDNAKNTVYLHMNSLKPEDTAVYYCAKYWLGYTKFDYWGQGTQVTVSS	low polyreactivity
QVQLVESGGGLVQAGGSLRLSCAASGFILPVYAMGWYRQAPGTERELVAAISSGGSTNYADSVKGRFTISRDNAKNTVYLQMNSLKPEDTEVYYCNKVDWYFGGYKYDYWGQGTQVTVSS	low polyreactivity
QVQLVESGGGLVQAGGSLRLSCAASGFILRAYAIGWYRQAPGKERELVAAITSATSTNYADSVKGRFTISRDNAKNTVYLQMNSLKPEDTAVYYCAADGGGGEFSYDSWGQGTQVTVSS	low polyreactivity
QVQLVESGGGLVQAGGSLRLSCAASGFILRYNAMGWYRQAPGKEREFVAAITRGATTTYADSVKGRFTISRDNAKNTVYLQMNRLKPEDTAVYYCAKRYHGYISQGQLWERIYDYWGQGTQVTVSS	low polyreactivity
QVQLVESGGGLVQAGGSLRLSCAASGFILSHYVMGWYRPAPGKERELVATIRNVGSTKYADSVKGRFTISRDNAKNTVYLQMNSLKPEDTAVYYCNARRWEGYYEFNYWGQGTQVTVSS	low polyreactivity
QVQLVESGGGLVQAGGSLRLSCAASGFILYDNTMGWYRQAPGKEREFVAAIRDSGGSTYYADSVKGRFTISRDNAKNTVYLQMNSLKPEDTAVYYCNTYGSGTHSTGYDYWGQGTQVTVSS	low polyreactivity
QVQLVESGGGLVQAGGSLRLSCAASGFILYGNTMGWYRQAPGKERELVAAISWSGGNTRYADSVKARFTISRDNAKNTVYLQMNSLQPEDTAVYYCAAYSNYVWSIRRDYWGQGTQVTVSS	low polyreactivity
QVQLVESGGGLVQAGGSLRLSCAASGFILYRNAMGWYRQAPGKERELVAAISRNGGSTYYADSVKGRFTISRDNAKNTFYLQMNSLKPEDTAVYYCAARTVGRKAGFDYWGQGTQVTVSS	high polyreactivity
QVQLVESGGGLVQAGGSLRLSCAASGFILYYYAMGWYRQAPGKERELVASISRRGGSTYYADSVKGRFTISRDNAKHTVYLQMNSLKPEDTAVYYCNAYSTYIKYDYWGHGTQVTVSS	high polyreactivity
QVQLVESGGGLVQAGGSLRLSCAASGFIQPYNTMGWYRQAPGKEREFVAAINYSGGRTYYADSVKGRFTISRDNAKNTVYLQMNRLKPEDTAVYYCAAARYPYRYKYNYWGQGTQVTVSS	high polyreactivity
QVQLVESGGGLVQAGGSLRLSCAASGFISARYAMGWYRQAPGKERELVAGISGGGGRTYYADSVKGRFTISRDNAKNTVYLQMNSLKPEDTAVYYCASTQQSRDRRFNYWGQGTQVTVSS	high polyreactivity
QVQLVESGGGLVQAGGSLRLSCAASGFISFGNGMGWYRQAPGKERELVAAITRRGGSTYYADSVKGLFTISRDNAKNTVYLQMNSLKPEDTAVYYCDARYLGSTSTNRPPMDYWGQGTQVTVSS	high polyreactivity
QVQLVESGGGLVQAGGSLRLSCAASGFISGGNAMGWYRQAPGKEREFVAAIDNTGSTYYADSVKGRFTISRDNAKNTVYLQMNSLKPEDTAVYYCNAEVSEDYVDNDYWGQGTQVTVSS	low polyreactivity
QVQLVESGGGLVQAGGSLRLSCAASGFISGSYAMGWYRQAPGKDREFVASISLSDGSTTYADSVKGRFTISRDTAKNPVYLQMNSLKPEDTAVYYCAVQFYYPFTGGTIYEYWGQGTQVTVAS	low polyreactivity
QVQLVESGGGLVQAGGSLRLSCAASGFISPSYAMGWYRQAPGKERELVAAIRSSDGSTYYADSVKGRFTISRDNAKNTVYLQMNSLKPEDTAVYYCAAGGSYYRDDYWGQGTQVTVSS	low polyreactivity
QVQLVESGGGLVQAGGSLRLSCAASGFISQFYAMGWYRQAPGKERELVAAINWRGDSTYYADSVKGRFTISRDNAKNTVYLQMNSLKPEVTAVYYCAAENWSGYDYWGQGTQVTVSS	high polyreactivity
QVQLVESGGGLVQAGGSLRLSCAASGFISRYAMGLYRQAPGKERELVAAINRSGGRTYYADSVKGRFTISRDNAKNTVYLQMNSLKPEDTAVYYCAAERSSSYTYDFWGQGTQVTVSS	high polyreactivity
QVQLVESGGGLVQAGGSLRLSCAASGFISVRNAMGWYRQAPGKERELVAAISSGDTTDYADSVKGRFTISRDNAKNTVSLQMNSLKAEDTAVYYCAAVYYGRYYYWGQGTQVTVSS	low polyreactivity
QVQLVESGGGLVQAGGSLRLSCAASGFISYTYMGWYRQAPGKERELVAGITGSGGSTYYADSVKGRFTISRDNAKNTVYLQMNSLKPEDTAVYYCAAERPRRSPDGLNYWGQGTQVTVSS	high polyreactivity
QVQLVESGGGLVQAGGSLRLSCAASGFIVASNAMGGDRQAPGKVRELLAAINSSAGSTYYADSVKGRFTISRDNAKNTVYLQMNSQKPEDTAVYYCNRDDGSVYRRHRRPYYYWGQRTQVTVSS	low polyreactivity

Sequence	polyreactivity (PSR sort gate)
QVQLVESGGGLVQAGGSLRLSCAASGFIVYTYAMGWYRPAPGKERELVAAISIGGRTNYADSVKGRFTISRDNAKNTVSLQMNSLKPEDTARYYCAARGYKRIGYWGQGTLVTVSS	high polyreactivity
QVQLVESGGGLVQAGGSLRLSCAASGFIYGRNAMGWYRQAPGKERELVAAINWRGGSTYYADSVKGRFTISRDNAKNTVYLQMNSLKAEDTAVYYCAARAPYRYGYDYWGQGTQVTLSS	high polyreactivity
QVQLVESGGGLVQAGGSLRLSCAASGFIYSKYAMRWYRQAPGKERELVAAITFSGGSTYYADSVKGRFTISRDNAKKTVYLQMNSLKPEDTAVYYCNAEGSYPDVSPVLGYDYWGQGTQVTVSS	low polyreactivity
QVQLVESGGGLVQAGGSLRLSCAASGFNCATNYMGWYRQAPGKERELVAAITKGGGRTYYADSVKGRFTISRDNAKNTVYLQMNSLKPEDTAVYYCAARQLIKYDYWGQGTQVTVSS	low polyreactivity
QVQLVESGGGLVQAGGSLRLSCAASGFNFAIYAMGWYRQAPGKERELVAAISSSGGSTYYADSVKGRFTISRDNAKNTVYLQMNSLKPEDTAVYYCNADWSLYWLDYWGQGTQVTVSS	high polyreactivity
QVQLVESGGGLVQAGGSLRLSCAASGFNFASNAMGWYRQAPGKERELVAAITKSGGRTYYADSVKGRFTISRDNAMNTVYLQMNSLKPEDTAVYYCAAKVRVVHRPYDHWGQGTQVTVSS	high polyreactivity
QVQLVESGGGLVQAGGSLRLSCAASGFNFDGYAMGWYRQAPGKERELVAAITYSGGSTYYADSVKGRFTISRDNAKNTVYLQMNSLKPEDTAVYYCAAESYVYGGSDYDYWGQGTQVTVSS	low polyreactivity
QVQLVESGGGLVQAGGSLRLSCAASGFNFDWYAMGWYRQAPGKERELVAAISASGGRTYYADSVKGRFTISRDNAKNTVYLQMNSLKPEDTAVYYCNKYYLVKGPYDWGQGTQVTVSS	high polyreactivity
QVQLVESGGGLVQAGGSLRLSCAASGFNFGGYPMGWYRQAPGKERELVADISKRGGSTFYADSVKGRFTISRDNAKNTVYLQMNSLKPEDTAVYYCATRFFYPYWGVYEYYYWGQGTQVTVSS	high polyreactivity
QVQLVESGGGLVQAGGSLRLSCAASGFNFKHYAMGWYRQAPGKERELVATITRGGSTNYADSVKGRFTISRDNAKNTVYLQMNSLKPEDTAVYYCAASDYVRYPFTRGYIYQGSDYWGQGTQVTVSS	low polyreactivity
QVQLVESGGGLVQAGGSLRLSCAASGFNFNNNGMGWYRQAPGKERELDAAISYSGGRTYYADSVKGRFTISRDNAKNTLYLQMNSLKPEETAVYYFADNSYYSRYDYWGQGTQVTVSS	low polyreactivity
QVQLVESGGGLVQAGGSLRLSCAASGFNFPGNAIGWYTPAPGKERELVATISSGGSTKYADSVKGRFTISRDNAKNTVYLQMNSLKPEDTAVYYFAARVYLGVFDYYYWGQGTQVTVSS	low polyreactivity
QVQLVESGGGLVQAGGSLRLSCAASGFNFPHYAMGWYIQAPGKERELVAAISWSGTRTYYADSVKGRFTISRDNAKNTVYLQMNSLKPEDTAVYYCNADSITEGNSRYSHFDYWGQGTQVTVSS	low polyreactivity
QVQLVESGGGLVQAGGSLRLSCAASGFNFRWYAMGWYRQAPGKESEFVAAITWRGGRTYYADSVKGRFTISRDNAKNTVYLQMNSLKPEDTAVYYCNAVYQYWHYSEGNYWGQGTQVTVSS	low polyreactivity
QVQLVESGGGLVQAGGSLRLSCAASGFNFRYNAMGWYRQAPGKERELVAGISGGGTHYADSVKGRFTISRDNAKNTVYLQMNSLKPEDTAVYYCARRGGYRRNTNFYYWGQGTQVTVSS	high polyreactivity
QVQLVESGGGLVQAGGSLRLSCAASGFNFSHNAMGWYRQAPGKERELVAAISGSGGRTYYADSVKGRFTISRDNAKNTVDLQMNSLKPEDTAVYYCNAGRWWRRGYGYWGQVTQVTVSS	high polyreactivity
QVQLVESGGGLVQAGGSLRLSCAASGFNFTRYAMGWYRQAPGKERELVAAISSGSRTYYADSVKGRFTISRDNAKNTVYLQMISLKPEDTAVYYCAAPVYTYYGHYDSWGQGTQVTVSS	high polyreactivity
QVQLVESGGGLVQAGGSLRLSCAASGFNFYFYTMGWYRQAPGKERELVAGITWSGDSTYYADSVKGRFTISRDNAKNTVYLQMNSLKPEDTAVYYCAAGFDFGTRVSKGYDYWGQGTQVTVSS	low polyreactivity
QVQLVESGGGLVQAGGSLRLSCAASGFNFYGYAMGWYRQAPGKERQLVATISRGGSTTYYADSVKGRFTISRDNAKNTVYLQMNSLKPEDTAVYYCAAYNVIYTRRMYYWGQGTQVTVSS	high polyreactivity
QVQLVESGGGLVQAGGSLRLSCAASGFNFYRYAMGWYRQAPGKERELVAVITGRGGTTYYSDSVKGRFTISRDNAKNTVYLQMNSLKTEDTAVYYCAAPQQQSWTYDGRYGYWGQGTKVTVSS	high polyreactivity
QVQLVESGGGLVQAGGSLRLSCAASGFPFVYYVMGWYRPAPGKERELVAAINAGGGYTYYADSVKGRFTISRDNAKNTVYVQMNSLKPEDTAVYYCNARVRVRLGRNWSSYYYWGQGTQVTVSS	high polyreactivity
